Consider 1 molecule from article PMC12043044, “Synthesis of Selectively ^13C/^2H/^15N‐ Labeled Arginine to Probe Protein Conformation and Interaction by NMR Spectroscopy” (Chemistry (Weinheim an Der Bergstrasse, Germany), 2025).

For this test, the target named is T1, human ubiquitin (human, UniProt P0CG48 1-76).
T1 construct: ubiquitin, human, the 76 amino acid-long protein (cut product of the polyubiquitin or ubiquitin-ribosomal fusion precursors); Isotope-labelled only (uniformly 15N, arginines 13Cdelta/2Hbeta,gamma/15Nepsilon); No tag is mentioned and the purification uses none; also called arginine-labeled ubiquitin; source: E. coli BL21(DE3), pET-21a(+), purified (heat shock at 70 °C, anion exchange, size …)
Kind of test: NMR titration; 70 µM arginine-labeled (U-15N, 13Cδ/2Hβγ/15Nε Arg) ubiquitin titrated with increasing amounts of unlabeled Sla1 SH3-3; 50 mM Tris-HCl, pH 8.0, 25 °C; 1H-13C HSQC and 1H-15N SOFAST-HMQC, chemical shift perturbations. To be noted: both partners purified.

B1: third SH3 domain (SH3-3) of yeast endocytic protein Sla1 (domain or fragment)
chain: MASKSKKRGIVQYDFMAESQDELTIKSGDKVYILDDKKSKDWWMCQLVDSGKSGLVPAQFIEPVRDKKHTE
notes: Sla1, yeast, third SH3 domain (SH3-3); residues E367, E371 and F409 are named as lying in the domain (PDB 2JT4); PDB 2JT4 is the cited NMR model of the complex with ubiquitin and may hold other limits; Plasmid bought from GeneCust; No removal of the tag is described; also called Sla1 SH3-3; source: cell-free expression (E. coli S15 extract, pIVEX2.3d vector), purified (HisTrap FF)
For the molecule B1, the binding result is listed as “binds”.
